Data reported in patent publication US20200102389A1 (Hoffmann-La Roche, published 2020).

Key:
[1] = target: T1, recombinant soluble human HLA-G β2M MHC class I complex, dimer (human); test: competition ELISA, immobilised HLA-G dimer, antibody titrated, competitor c-myc ILT4
T1 construct: also called HLA-G Dimer; fraction A9
Experimental: The ELISA was set up by coating the biotinylated antigen wt HLA-G to strepdavidin plates. After incubation and washing steps, the respective antibodies were bound in a concentration range from 8-0 μg in 1:3 dilution steps. C-myc tagged ILT-2 or -4 receptor was added to the HLA-G-antibody complexes. After incubation and washing steps, detection of bound receptor was carried out by anti-cmyc-antibody-POD conjugates. IC50 values were determined from the resulting inhibition curves at the antibody concentrations generating the half-maximal inhibition. In case of the non-biotinylated HLA-G dimer and trimer antigens, immobilization was carried out by random coating on assay plates.

[2] = target: T2, modified human HLA-G β2M MHC class I complex (HLA-G specific amino acids replaced by HLA-A consensus amino … (human)); test: SPR (Biacore T200), antibody captured, HLA-G complex injected
T2 construct: also called degrafted HLA-G

B1: HLA-G-0033 (antibody, V domains shown)
VH: EVQLVETGGGLVQSGRSLKLSCVASGFTFNDYWMTWTRQAPGKGLEWVASITNSGGRTYYLDSVRGRFTISRDDAQNTLYLQMNSLRSEDTATYYCTKERIYLTAYWFFDFWGPGTMVTVSS
VL: DTILTQSPALAVSPGERVTISCRASESVSTLIHWYQQKPGQRPKLLIYLASHLESGVPARFSGSGSGTDFTLTIDPVEADDTATYYCQQSWNEPRTFGGGTKLELK
B1 gave an IC50 [1] of 31.3 nM.

B2: HLA-G-0032 (antibody, V domains shown)
VH: QVQLQQSGAELVKPGSSVKISCKASGYSFPSYDMHWIKQQPGNGLEWIGWIYPGNGNTKYNQKFNGKASLTADKSSSTAYMQLSSLTSEDSAVYFCAKPTVATRYNWFAYWGQGTLVTVSS
VL: QIVLTQSPALMSASPGEKVTMTCSASSSVNYMHWYQQKPRSSPKPWIYLTSNLASGVPARFSGSGSGTSYSLTISTMEAEDAATYYCQQWSSNLPITFGSGTKLEIK
In the case of B2, the binding result [2] is reported as “no binding (tested: 2.5 up to 800 nM)” and the IC50 [1] is reported as 50.3 nM.
